Data as given in IntAct's records for PubMed 31515488.

B1: Protein FAM9B (Homo sapiens), Q8IZU0 (parent)
chain: MAAWGKKHAGKDPVRDECEERNRFTETREEDVTDEHGEREPFAETDEHTGANTKKPEDTAEDLTAKRKRMKMDKTCSKTKNKSKHALRKKQLKRQKRDYIHSLKLLNVLEEYITDEQKEEEEEEGEEEELIRIFQEQQKKWQQYRSVRRERLKEMKLLRDQFVKALEDFEDLCDRVFSDEDSELDN
partner: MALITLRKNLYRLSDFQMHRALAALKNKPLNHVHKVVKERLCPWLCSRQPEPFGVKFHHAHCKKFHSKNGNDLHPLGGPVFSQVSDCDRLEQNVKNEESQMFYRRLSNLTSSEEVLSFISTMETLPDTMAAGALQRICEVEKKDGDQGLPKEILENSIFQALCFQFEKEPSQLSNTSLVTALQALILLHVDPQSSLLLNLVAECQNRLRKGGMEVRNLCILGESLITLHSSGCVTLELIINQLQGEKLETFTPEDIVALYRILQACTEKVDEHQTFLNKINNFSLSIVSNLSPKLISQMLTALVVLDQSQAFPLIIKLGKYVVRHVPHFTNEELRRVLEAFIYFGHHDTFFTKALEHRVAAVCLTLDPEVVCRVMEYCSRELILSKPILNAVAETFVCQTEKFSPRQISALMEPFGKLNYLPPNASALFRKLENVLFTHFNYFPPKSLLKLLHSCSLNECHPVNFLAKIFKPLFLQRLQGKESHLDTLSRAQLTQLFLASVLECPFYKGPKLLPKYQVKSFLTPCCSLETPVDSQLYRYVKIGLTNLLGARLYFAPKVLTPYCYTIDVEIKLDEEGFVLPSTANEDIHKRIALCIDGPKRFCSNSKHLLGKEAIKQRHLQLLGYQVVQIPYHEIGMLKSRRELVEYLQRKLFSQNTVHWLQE
B2: Notch homolog 2 N-terminal-like protein A (Homo sapiens), Q7Z3S9 (parent)
chain: MCVTYHNGTGYCKCPEGFLGEYCQHRDPCEKNRCQNGGTCVAQAMLGKATCRCASGFTGEDCQYSTSHPCFVSRPCLNGGTCHMLSRDTYECTCQVGFTGKECQWTDACLSHPCANGSTCTTVANQFSCKCLTGFTGQKCETDVNECDIPGHCQHGGTCLNLPGSYQCQCLQGFTGQYCDSLYVPCAPSPCVNGGTCRQTGDFTFECNCLPETVRRGTELWERDREVWNGKEHDEN
partner: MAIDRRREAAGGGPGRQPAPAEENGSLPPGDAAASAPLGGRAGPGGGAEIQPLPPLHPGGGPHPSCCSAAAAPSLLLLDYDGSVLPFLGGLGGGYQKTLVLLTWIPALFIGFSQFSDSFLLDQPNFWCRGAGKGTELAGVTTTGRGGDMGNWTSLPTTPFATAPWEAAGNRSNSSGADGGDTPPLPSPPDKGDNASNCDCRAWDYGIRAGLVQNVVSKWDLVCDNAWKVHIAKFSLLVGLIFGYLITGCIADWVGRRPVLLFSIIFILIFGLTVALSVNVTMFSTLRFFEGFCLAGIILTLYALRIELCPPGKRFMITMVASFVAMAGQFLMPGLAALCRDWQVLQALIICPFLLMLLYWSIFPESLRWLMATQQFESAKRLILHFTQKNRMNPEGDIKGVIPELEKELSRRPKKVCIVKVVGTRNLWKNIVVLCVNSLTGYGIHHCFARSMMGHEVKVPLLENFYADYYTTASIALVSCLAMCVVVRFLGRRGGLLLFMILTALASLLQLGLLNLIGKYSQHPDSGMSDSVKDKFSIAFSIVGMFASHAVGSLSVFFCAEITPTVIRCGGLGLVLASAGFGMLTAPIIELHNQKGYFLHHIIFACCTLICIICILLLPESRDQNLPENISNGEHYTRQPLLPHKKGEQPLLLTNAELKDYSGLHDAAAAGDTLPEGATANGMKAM
B3: Serine/threonine-protein kinase PAK 5 (Homo sapiens), Q9P286 (parent)
chain: MFGKKKKKIEISGPSNFEHRVHTGFDPQEQKFTGLPQQWHSLLADTANRPKPMVDPSCITPIQLAPMKTIVRGNKPCKETSINGLLEDFDNISVTRSNSLRKESPPTPDQGASSHGPGHAEENGFITFSQYSSESDTTADYTTEKYREKSLYGDDLDPYYRGSHAAKQNGHVMKMKHGEAYYSEVKPLKSDFARFSADYHSHLDSLSKPSEYSDLKWEYQRASSSSPLDYSFQFTPSRTAGTSGCSKESLAYSESEWGPSLDDYDRRPKSSYLNQTSPQPTMRQRSRSGSGLQEPMMPFGASAFKTHPQGHSYNSYTYPRLSEPTMCIPKVDYDRAQMVLSPPLSGSDTYPRGPAKLPQSQSKSGYSSSSHQYPSGYHKATLYHHPSLQSSSQYISTASYLSSLSLSSSTYPPPSWGSSSDQQPSRVSHEQFRAALQLVVSPGDPREYLANFIKIGEGSTGIVCIATEKHTGKQVAVKKMDLRKQQRRELLFNEVVIMRDYHHDNVVDMYSSYLVGDELWVVMEFLEGGALTDIVTHTRMNEEQIATVCLSVLRALSYLHNQGVIHRDIKSDSILLTSDGRIKLSDFGFCAQVSKEVPKRKSLVGTPYWMAPEVISRLPYGTEVDIWSLGIMVIEMIDGEPPYFNEPPLQAMRRIRDSLPPRVKDLHKVSSVLRGFLDLMLVREPSQRATAQELLGHPFLKLAGPPSCIVPLMRQYRHH
partner: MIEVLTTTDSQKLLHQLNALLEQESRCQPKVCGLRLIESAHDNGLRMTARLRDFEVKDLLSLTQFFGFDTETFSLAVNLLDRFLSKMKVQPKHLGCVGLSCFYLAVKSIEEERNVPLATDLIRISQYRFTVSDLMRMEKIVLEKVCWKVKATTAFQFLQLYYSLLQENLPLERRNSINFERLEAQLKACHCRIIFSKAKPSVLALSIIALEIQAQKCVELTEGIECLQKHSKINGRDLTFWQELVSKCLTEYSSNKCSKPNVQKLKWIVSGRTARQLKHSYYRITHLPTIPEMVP
B4: Proline-rich protein 3 (Homo sapiens), P79522 (parent)
chain: MPKRKKQNHHQPPTQQQPPLPEREETGDEEDGSPIGPPSLLGPPPMANGKPGDPKSALHRGPPGSRGPLIPPLLSLPPPPWGRGPIRRGLGPRSSPYGRGWWGVNAEPPFPGPGHGGPTRGSFHKEQRNPRRLKSWSLIKNTCPPKDDPQVMEDKSDRPVCRHFAKKGHCRYEDLCAFYHPGVNGPPL
partner: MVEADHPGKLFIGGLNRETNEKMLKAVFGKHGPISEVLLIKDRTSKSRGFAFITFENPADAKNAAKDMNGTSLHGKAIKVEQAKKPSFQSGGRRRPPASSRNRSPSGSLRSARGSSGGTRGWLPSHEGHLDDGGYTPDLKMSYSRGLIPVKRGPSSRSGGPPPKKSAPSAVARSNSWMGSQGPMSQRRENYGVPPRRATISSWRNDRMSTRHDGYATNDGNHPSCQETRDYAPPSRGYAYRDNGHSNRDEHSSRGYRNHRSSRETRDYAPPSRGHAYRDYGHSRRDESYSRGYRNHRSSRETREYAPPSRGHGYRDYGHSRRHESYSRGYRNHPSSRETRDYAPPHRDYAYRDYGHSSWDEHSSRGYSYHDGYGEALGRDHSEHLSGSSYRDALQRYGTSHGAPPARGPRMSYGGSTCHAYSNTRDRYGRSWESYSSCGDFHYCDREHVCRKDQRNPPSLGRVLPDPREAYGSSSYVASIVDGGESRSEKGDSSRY
B5: E3 ubiquitin-protein ligase TRIM9 (Homo sapiens), Q9C026-5 (parent)
chain: MEEMEEELKCPVCGSFYREPIILPCSHNLCQACARNILVQTPESESPQSHRAAGSGVSDYDYLDLDKMSLYSEADSGYGSYGGFASAPTTPCQKSPNGVRVFPPAMPPPATHLSPALAPVPRNSCITCPQCHRSLILDDRGLRGFPKNRVLEGVIDRYQQSKAAALKCQLCEKAPKEATVMCEQCDVFYCDPCRLRCHPPRGPLAKHRLVPPAQGRVSRRLSPRKVSTCTDHELENHSMYCVQCKMPVCYQCLEEGKHSSHEVKALGAMWKLHKSQLSQALNGLSDRAKEAKEFLVQLRNMVQQIQENSVEFEACLVAQCDALIDALNRRKAQLLARVNKEHEHKLKVVRDQISHCTVKLRQTTGLMEYCLEVIKENDPSGFLQISDALIRRVHLTEDQWGKGTLTPRMTTDFDLSLDNSPLLQSIHQLDFVQVKASSPVPATPILQLEECCTHNNSATLSWKQPPLSTVPADGYILELDDGNGGQFREVYVGKETMCTVDGLHFNSTYNARVKAFNKTGVSPYSKTLVLQTSEGKALQQYPSERELRGI
B6: U3 small nucleolar RNA-associated protein 14 homolog C (Homo sapiens), Q5TAP6 (parent)
chain: MNVNQVAENLALSHQEELVDLPKNYPLSENEDEGDSDGERKHQKLLEAIISLDGKNRRKLAERSEASLKVSEFSVSSEGSGEKLGLADLLEPVKTSSSLATVKKQLNRVKSKKVVELPLNKEKIEQIHREVAFSKTSQVLSKWDPIILKNQQAEQLVFPLGKEQPAIAPIEHALSGWKARTPLEQEIFNLLHKNKQPVTDPLLTPMEKASLQAMSLEEAKMHRAELQRARALQSYYEAKARKEKKIKSKKYHKVVKKGKAKKALKEFEQLQKVNPTVALEEMEKIENARMMERMSLKHQNSGKWAKSKAIMAKYDLEARQAMQEQLAKNKELTQKLQVASESEEEEGGTEVEELLVPHVANEVQMNVDGPNPWMFRSCTSDTKEAATQEDPEQVPELAAHEVSASEAEERPVAEEEILLREFEERQSLRKRSELNQDAEPASSQETKDSSSQEVLSELRALSQKLKEKHQSRKQKASSEGTVPQVQREEPAPEEAEPLLLQRSERVQTLEELEELGKEDCFQNKELPRPVLEGQQSERTPNNRPDAPKEKKEKEQLINLQNFLTTQSPSVRSLAVPTIIEELEDEEERDQRQMIKEAFAGDDVIRDFLKEKREAVEASKPKDVDLTLPGWGEWGGVGLKPSAKKRRQFLIKAPEGPPRKDKNLPNVIISEKRNIHAAAHQVQVLPYPFTHHRQFERTIQTPIGSTWNTQRAFQKLTTPKVVTKPGHIIKPIKAEDVGYQSSSRSDLPVIQRNPKRITTRHNKEEKL
partner: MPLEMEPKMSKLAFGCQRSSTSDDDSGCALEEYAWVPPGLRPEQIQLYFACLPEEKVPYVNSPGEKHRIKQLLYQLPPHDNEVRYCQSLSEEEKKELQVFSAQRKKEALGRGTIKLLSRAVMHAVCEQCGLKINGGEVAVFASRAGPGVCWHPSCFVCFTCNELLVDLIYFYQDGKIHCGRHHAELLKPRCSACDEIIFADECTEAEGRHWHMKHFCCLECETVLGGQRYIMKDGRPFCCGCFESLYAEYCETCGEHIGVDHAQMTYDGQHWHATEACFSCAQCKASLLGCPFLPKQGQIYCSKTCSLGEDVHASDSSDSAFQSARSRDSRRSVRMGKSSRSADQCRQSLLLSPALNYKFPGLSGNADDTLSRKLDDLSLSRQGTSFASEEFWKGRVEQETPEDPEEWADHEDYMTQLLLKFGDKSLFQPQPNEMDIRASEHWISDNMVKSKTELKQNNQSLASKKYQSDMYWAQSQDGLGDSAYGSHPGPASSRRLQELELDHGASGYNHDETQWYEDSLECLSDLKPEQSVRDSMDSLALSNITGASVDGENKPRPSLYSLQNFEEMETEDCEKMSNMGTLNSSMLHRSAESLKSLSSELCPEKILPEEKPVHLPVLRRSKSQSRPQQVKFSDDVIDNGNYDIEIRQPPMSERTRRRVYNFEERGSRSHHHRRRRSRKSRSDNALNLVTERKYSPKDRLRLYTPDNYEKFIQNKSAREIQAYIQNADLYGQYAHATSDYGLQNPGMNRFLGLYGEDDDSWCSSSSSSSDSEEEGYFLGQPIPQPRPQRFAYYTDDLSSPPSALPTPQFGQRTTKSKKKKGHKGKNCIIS

Variants of: B1
Conditions: with fakd3_human FASTKD3, Q14CZ7

Row | Variant | effect of a mutation on the interaction
1 | R23H | with no effect

Variants of: B2
Conditions: with SLC22A23, A1A5C7

Row | Variant | effect of a mutation on the interaction
2 | R74Q | with no effect
3 | A115T | with no effect

Variants of: B3
Conditions: with ccng1_human CCNG1, P51959

Row | Variant | effect of a mutation on the interaction
4 | S511N | with no effect
5 | R335P | with no effect
6 | V604I | with no effect

Variants of: B4
Conditions: with rby1f_human RBMY1F

Row | Variant | effect of a mutation on the interaction
7 | R87W | with no effect

Variants of: B5
Conditions: with fbw1a_human BTRC

Row | Variant | effect of a mutation on the interaction
8 | L277F | with no effect

Variants of: B6
Conditions: with pric1_human PRICKLE1, Q96MT3

Row | Variant | effect of a mutation on the interaction
9 | K247E | with no effect
10 | I170V | with no effect
11 | A652T | with no effect
